{
  "source": "patent US20110243962A1",
  "about": "(GENEURO, published 2011)",
  "binders": {"B1": {"name": "Humanized GNb AC1 IgG4 antibody (stabilized, H2 S241P heavy chain and VK3 light chain) (antibody, V domains shown)", "VH": "QVQLVQSGAEVKKPGSSVKVSCKASGYTFTDYEMHWVRQAPGQGLEWIGAVAPETGGTAYNQKFKGRATITADKSTSTAYMELSSLRSEDTAVYYCTSTVVPFAYWGQGTLVTVSS", "VL": "QIQLTQSPSSLSASVGDRVTITCSASSSVSYMYWYQQKPGKAPKAWIYRTSNLASGVPSRFSGSGSGTDYTLTISSLQPEDFATYYCQQYQSLPLTFGGGTKVEIKR"}},
  "key": {"[1]": {"target": "T1, MSRV ENV surface domain fragment (ENV-SU), recombinant from E. coli (MSRV (Multiple Sclerosis associated …))", "T1 chain": "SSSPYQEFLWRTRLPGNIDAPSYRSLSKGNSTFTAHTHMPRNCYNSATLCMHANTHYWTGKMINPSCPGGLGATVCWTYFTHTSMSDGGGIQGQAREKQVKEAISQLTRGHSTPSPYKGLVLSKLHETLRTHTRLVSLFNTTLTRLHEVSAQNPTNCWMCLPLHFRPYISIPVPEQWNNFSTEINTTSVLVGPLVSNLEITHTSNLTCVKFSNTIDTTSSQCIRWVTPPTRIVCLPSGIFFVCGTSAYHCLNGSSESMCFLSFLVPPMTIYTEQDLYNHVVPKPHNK", "experiment": "cell-based or functional assay"}, "[2]": {"target": "T2, MSRV complete ENV protein (ENV-T), recombinant from E. coli (MSRV (Multiple Sclerosis associated …))", "T2 chain": "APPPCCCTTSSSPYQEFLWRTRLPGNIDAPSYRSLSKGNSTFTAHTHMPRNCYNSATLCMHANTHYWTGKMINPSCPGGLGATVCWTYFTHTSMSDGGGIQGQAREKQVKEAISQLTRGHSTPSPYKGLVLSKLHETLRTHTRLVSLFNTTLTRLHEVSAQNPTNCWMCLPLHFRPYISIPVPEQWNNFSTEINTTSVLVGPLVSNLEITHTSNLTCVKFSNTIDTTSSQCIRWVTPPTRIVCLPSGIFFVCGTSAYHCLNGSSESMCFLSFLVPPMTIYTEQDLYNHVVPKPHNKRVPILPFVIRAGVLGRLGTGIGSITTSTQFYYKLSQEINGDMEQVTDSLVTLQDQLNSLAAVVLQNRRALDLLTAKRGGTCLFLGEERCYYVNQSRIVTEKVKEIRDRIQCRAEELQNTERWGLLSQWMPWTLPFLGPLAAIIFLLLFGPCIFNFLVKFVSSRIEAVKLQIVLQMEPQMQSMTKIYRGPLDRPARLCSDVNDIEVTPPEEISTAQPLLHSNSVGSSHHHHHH", "experiment": "cell-based or functional assay"}},
  "data": [
    {"binder": "B1", "values": [
      {"measurement": "IFN-g at 72 h in PBMC culture with ENV-SU 0.5 ug/ml, MAb ratio 10/1 (no antibody: 336)", "setting": "[1]", "value": 46},
      {"measurement": "IL-6 at 24 h in PBMC culture with ENV-T 0.1 ug/ml, MAb ratio 10/1 (no antibody: 4363)", "setting": "[2]", "value": 2910}
    ]}
  ]
}
